Measured values: the DeepSol protein solubility set

Assay: soluble on expression in E. coli; label from the status in PepcDB or PDB records

Sequence | soluble on expression in E. coli
MGSDKIHHHHHHMDDGELEEVFFDEIETIAGKIYLGRIEKIVPGLEAAFVKIGKGRNAFLKLSEINEAYRKTVLKGQEVKEGQKILVQVKKDASGKKGPQVTPQIGIADRFVVIFPFKKVIGVSRKIEDASERRRLRTIAFSLRKKYGVGVIMRTAAEGVDEEEIIKNFERALEKWNQVLQKFRRSRKPKLLYEEDPVEQIIKEKVNSKIDKLIYNDRSLLETLQKYLQNLPKKPEIEYVEGDLFEKFSVYERLKKLLSRTVPLKSGGNIVIDRTEALTVIDVNSESYTDAENQEELALKTNMEAIEEIVRQLILRNIGGIVVIDFIKQKDPKSYEKLLSRFKEVAKRDGTRIEIFGFTNLGLLEITRKRTTRPLDTLLFTRCPVCSGTGKVLSQKILLKRIREDLKKLKDFEEVTLKVHPNMSGYFKREDIKKLQKEFKVKLNLDYGWHDPNSYEIKAKTKKGGK | not soluble
MGSDKIHHHHHHMDDYGYRALPDALGTTYGSYLSAKSASGRYTVYVGANDGMLHAFDAGMTADGSMDASGGLERFAYIPATALGHMGNLLLPSDPTNRTTEYEHRYYVDGPVVVGDANYAGSWKTVVVGAAGAGGRSIFALDVTNPSNFSTSSKLWEISDLDSSLSTAIRNNIGHVLGKPVIVPVKNAAGAVTWKAIFGNGYNSRNGKAVLFVVDIKTGAPAVTMIEATETGSTIAGSNGLGNIVVVDRWGGASQTDGVRDGYADTVYGADQKGAIWKFDLRSSAASVTVPFFTTRTSVESGQTYRQPITGGLVATAGDAGGVMLFFGTGSFSFESDPKDEAIQSLYGVNDTVRGAPLTTATRANLRGSTVVQDGDRTLSRAAAPANSQGWYVDLPAKERMVGSPSIASGIVFIPTYTPAVVSSGCKPDGANWLFGLDTRTGDGALMDARKGSPTGASFASRTAATPLTTSGNAPVKDVGVSAIPRLSPAESGSAPGGQACWMVVTAAGSGPLYIPYPCGRQSWRQVQ | not soluble
MGSDKIHHHHHHMDELVDGERESGRAALGRTLRLLREKSGKTLGQLAGETSYDKSYLYRLETGERLSKRAVMEDLDRYHGSGDLLVRLWRDARKDVIKDKYKAFMELEATARVMWKFQLRVPGLLQTEDYARVVLSGLSRAQTTAGNGEEVEEQVAARVGRQEMLHRQPAPSVRVILDEGALRRRVPKEKVWADQLVHLVDVAELASVTLQVLPFTAGVHDLMNSDLTLMWQRVGEPVAYVEGNGFGELVDDPDKVLSYRLSYDLVRDAALTPAESTTFIKRLLEECRS | not soluble
MGSDKIHHHHHHMDIRQLKTFIAIAEHGTFAKAADAVGLTPSAVSQQIQALESEVRGELFDRATRPIMLNGHGLQMLEAARTLVRDADNIIDAISGRAVSGTFTIGSVRSSALSLLPLSIVALKADYPDLRIKLQVANTDELLKDVMSGRLDCAMVAEYSGIPSALRWQPFINEPLLVIGPNGTPKMSGFDMLSKLPYVRFNSKFRLAQIIETELAKTRIVPNLIAEIDTIASVVSCVIHGLGVSVVPWIALRDIAAPIVAVQFGEPQILRPIGLLERRSGTRAQIIDRLHQNLARLSDPYGIPR | not soluble
MGSDKIHHHHHHMDITALQQQLELIQQNDYTQLRHIDINELTLHMLQYIGTTDSYVRYQLIYKCFVHFIHHEFLMDDQLKLLLQTCLSDEYLYCDIYSPHSDGVFTRSYTVSLIALILQFANSHYFCTEEDIEEIKNKLITYTNLETDFRGYIENKGWAHCLAHVSDAFTEIVHNSYTTFEWYEELIHCLLNKIFIPSDLFHNNEDERIVTPLLAMLYHDFPQDELISIIQKKIKRLPQIRKRLSLNEYCILCANIKTFLRTLFFRTKDDHNLAFTARKTERMLKELPNYY | not soluble
MGSDKIHHHHHHMDKLSFNIFPNVNFIDLCMYQFGHEQCEPGHSFGPATRNHYLFHYVLSGTGTLMADNAKGITQTYNIKSGQGFLIFPGQINTYIADDKLPWEYIWIEFDGLRVKEALTTTELTKNNPVYHTHSKDIREKLVEEMLYITRHPSESPYHLIGHMYLFLDYLMQSAKSSKLVPGGKMSDFYIKEAMNYIEQNFQNDISIEDIAGVCGINRSYLGKIFKNSVGHSPQEFLMNYRMIKATELLKLTSLSIADVGSAVGYENQLHFSRAFKNIYGVAPREWRNEHK | not soluble
MGSDKIHHHHHHMDLRSDALQILKDTSRTFYIPISILPSGLQEAVASAYLCMRAIDEIEDHPTLDNPTKAKLLRGISLTLQAGVDGFPVDAFAAGFSGYENTLAEVTMRIREWSLLAPETIAPRIWDATAAMSDRMAYWAENNWKIYTESDLDRYTFGVAGAVGLLLSDLWTWYDGTQTNRTLAIGFGRGLQAVNILRNHVEDLGRGVSFFPDGWDANNMQEYALRNLALADAYTQALPDGPALNFCQIPLTLAHGTIDAIANGKEKLSRNDVMALLEHLITFNLKAG | not soluble
